Loss of activity (relative conversion of ArbA2-FLWGY to product) against ArbB2 (% loss of activity) data for one molecule are collected here from article PMC12186524.

For assay [1], the target named is ArbB2 Met160Ala (Coffea arabica).
The target of assay [2] is ArbB2 Pro242Ala (Coffea arabica).

As to GNTLKDFESKPGSFLWGYQG [ArbA2_(58–77) (ArbA2-FLWGY)], the loss of activity (relative conversion of ArbA2-FLWGY to product) against ArbB2 (% loss of activity) in assay [1] turned out to be 60; in assay [2], 90.
